Earlier results as cited in patent publication US6663886B2, “Inhibition of cell-cell binding by lipid assemblies” (Regents of the University of California, priority 1997, dated 2003).

Target: T1, P-selectin (Homo sapiens, UniProt P16109)
T1 sequence (P16109 42-830): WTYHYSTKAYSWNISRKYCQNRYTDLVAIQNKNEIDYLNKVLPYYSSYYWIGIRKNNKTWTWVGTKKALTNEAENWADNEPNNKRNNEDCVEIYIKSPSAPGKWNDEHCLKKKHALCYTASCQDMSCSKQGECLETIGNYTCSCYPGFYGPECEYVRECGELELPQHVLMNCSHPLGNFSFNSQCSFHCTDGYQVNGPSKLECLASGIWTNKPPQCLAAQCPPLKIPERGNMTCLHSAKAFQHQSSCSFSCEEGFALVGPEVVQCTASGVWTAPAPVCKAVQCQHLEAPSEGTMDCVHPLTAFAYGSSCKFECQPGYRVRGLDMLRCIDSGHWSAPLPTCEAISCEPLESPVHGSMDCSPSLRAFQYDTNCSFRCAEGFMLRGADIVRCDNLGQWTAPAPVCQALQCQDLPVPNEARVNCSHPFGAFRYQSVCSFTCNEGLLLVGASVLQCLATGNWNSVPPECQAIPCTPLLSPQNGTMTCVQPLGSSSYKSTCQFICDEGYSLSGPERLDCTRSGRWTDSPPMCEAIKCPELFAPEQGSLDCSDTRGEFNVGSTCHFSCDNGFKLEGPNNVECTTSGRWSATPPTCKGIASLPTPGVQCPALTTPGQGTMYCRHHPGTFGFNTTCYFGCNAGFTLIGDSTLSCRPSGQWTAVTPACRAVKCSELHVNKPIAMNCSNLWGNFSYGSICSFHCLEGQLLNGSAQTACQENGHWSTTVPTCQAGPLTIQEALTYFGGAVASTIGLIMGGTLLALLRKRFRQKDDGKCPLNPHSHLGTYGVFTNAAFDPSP
Conditions: literature (Nelson et al. 1993; Moore et al. 1991)

B1: natural ligand: natural ligand of P-selectin, P-selectin glycoprotein ligand 1 (protein, UniProt Q14242 42-412, looked up)
P-selectin glycoprotein …: QATEYEYLDYDFLPETEPPEMLRNSTDTTPLTGPGTPESTTVEPAARRSTGLDAGGAVTELTTELANMGNLSTDSAAMEIQTTQPAATEAQTTQPVPTEAQTTPLAATEAQTTRLTATEAQTTPLAATEAQTTPPAATEAQTTQPTGLEAQTTAPAAMEAQTTAPAAMEAQTTPPAAMEAQTTQTTAMEAQTTAPEATEAQTTQPTATEAQTTPLAAMEALSTEPSATEALSMEPTTKRGLFIPFSVSSVTHKGIPMAASNLSVNYPVGAPDHISVKQCLLAILILALVATIFFVCTVVLAVRLSRKGHMYPVRNYSPTEMVCISSLLPDGGEGPSATANGGLSKAKSPGLTPEPREDREGDDLTLHSFLP
  binding affinity of P-selectin: in the nM range
